According to patent publication US8734776B2 (ZymoGenetics, Inc., priority 2003, dated 2014):
Where two headings read alike, the source gives them in different places.

Assays:
[1] = tested on: respiratory syncytial virus; type: cell-based; settings: MA-104 cells
parainfluenza virus [2] = type: cell-based; settings: MA-104 cells
dengue virus [3] = type: cell-based; settings: Vero cells
rhino virus = type: cell-based
pichinde virus [4] = type: cell-based
pichinde virus [5] = type: cell-based; remark: listed apart in the source
adenovirus = type: cell-based; settings: A549 cells
[6] = tested on: human marrow mononuclear cells; assay: Bone marrow expansion assay (Alamar Blue); type: cell-based
coxsackie virus [7] = type: cell-based; settings: Coxsackie B4 virus, KB cells
OAS = OAS activity in serum and plasma of mice (RIA)
parainfluenza virus [8] = type: cell-based; settings: MA-104 cells; remark: listed apart in the source
[9] = tested on: respiratory syncytial virus; type: cell-based; settings: MA-104 cells; remark: listed apart in the source
adenoviral vector, AdGFP = assay: Adenoviral (AdGFP) liver pathology in mice; type: in vivo, mouse; settings: C57Bl/6 mice
Description: When injected intravenously, these viruses primarily target the liver for gene expression. The adenoviruses are replication deficient, but cause liver damage due to inflammatory cell infiltrate that can be monitored by measurement of serum levels of liver enzymes like AST and ALT, or by direct examination of liver pathology.
C57B116 mice were given once daily intraperitoneal injections of 50 μg mouse IL-28 (zcyto24 as shown in SEQ ID NO:8) or metIL-29C172S—PEG for 3 days. Control animals were injected with PBS. One hour following the 3rd dose, mice were given a single bolus intravenous tail vein injection of the adenoviral vector, AdGFP (1×10^9 plaque-forming units (pfu)). Following this, every other day mice were given an additional dose of PBS, mouse IL-28 or metIL-29C172S—PEG for 4 more doses (total of 7 doses). One hour following the final dose of PBS, mouse IL-28 or metIL-29C172S—PEG mice were terminally bleed and sacrificed. The serum and liver tissue were analyzed. Serum was analyzed for AST and ALT liver enzymes. Liver was isolated and analyzed for GFP expression and histology. For histology, liver specimens were fixed in formalin and then embedded in paraffin followed by H&E staining. Sections of liver that had been blinded to treat were examined with a light microscope. Changes were noted and scored on a scale designed to measure liver pathology and inflammation.

west nile virus [10] = type: cell-based; settings: Vero cells
vaccinia virus [11] = type: cell-based; settings: Vero cells
coxsackie virus [12] = type: cell-based; settings: Coxsackie B4 virus, KB cells; remark: listed apart in the source
dengue virus [13] = type: cell-based; settings: Vero cells; remark: listed apart in the source
west nile virus [14] = type: cell-based; settings: Vero cells; remark: listed apart in the source
influenza virus = type: cell-based; settings: Influenza (type A [H3N2])
vaccinia virus [15] = type: cell-based; settings: Vero cells; remark: listed apart in the source
[16] = tested on: venezuelan equine encephalitis virus; type: cell-based; settings: Vero cells
[17] = tested on: encephelomyocarditis virus; assay: Antiviral assay: cytopathic effect in HeLa cells; type: cell-based, human
EMCV = EMCV antiviral dye-uptake assay in HepG2 cells; type: cell-based, human; settings: dye-uptake OD570
BVDV = BVDV CPE inhibition assay in MDBK cells; type: cell-based; settings: MDBK bovine kidney cells
Description: IFNα and RIBAVIRIN® were used as positive controls. Test sample were added at the time of viral infection.

HHV-8 = HHV-8 replication in BCBL-1 cells (TaqMan PCR)
[18] = Maden-Darby Canine Kidney cells

B1: IL-29: human IL-29, previously designated zcyto21, SEQ ID NO:4 (protein, listed as Homo sapiens)
chain: MAAAWTVVLVTLVLGLAVAGPVPTSKPTTTGKGCHIGRFKSLSPQELASFKKARDALEESLKLKNWSCSSPVFPGNWDLRLLQVRERPVALEAELALTLKVLEAAAGPALEDVLDQPLHTLHHILSQLQACIQPQPTAGPRPRGRLHHWLHRLQEAPKKESAGCLEASVTFNLFRLLTRDLKYVADGNLCLRTSTHPEST
modifications: SIGNAL (1)...(19)
**Q.** Which results are given for B1?
**A.** EC50 Visual [1]: >10 µg/mL; IC50 Visual [1]: >10 µg/mL; EC50 Visual (parainfluenza virus [2]): >10 µg/mL; IC50 Visual (parainfluenza virus [2]): >10 µg/mL; EC50 NR (dengue virus [3]): 0.05 µg/mL; IC50 NR (dengue virus [3]): >10 µg/mL; EC50 Visual (rhino virus; Rhino 2, KB cells): >10 µg/mL; IC50 Visual (rhino virus; Rhino 2, KB cells): >10 µg/mL; EC50 Visual (rhino virus; Rhino 9, HeLa cells): >10 µg/mL; IC50 Visual (rhino virus; Rhino 9, HeLa cells): >10 µg/mL; EC50 NR (pichinde virus [4]): >10 µg/mL; IC50 NR (pichinde virus [4]): >10 µg/mL; EC50 Visual (pichinde virus [5]): >10 µg/mL; IC50 Visual (pichinde virus [5]): >10 µg/mL; EC50 NR (adenovirus): >10 µg/mL; IC50 NR (adenovirus): >10 µg/mL; bone marrow cell expansion ([6]; in the presence of IL-2 or IL-15): small inhibition; expansion of bone marrow cells ([6]; in the presence of IL-3, IL-4, IL-5, IL-7, IL-10, IL-12, IL-21 or no added cytokine): no significant effect; EC50 NR (coxsackie virus [7]): >10 µg/mL; IC50 NR (coxsackie virus [7]): >10 µg/mL; OAS activity in the serum and plasma of mice (OAS; C57BL/6 mice, i.v, 10 μg-250 μg): induced OAS activity; OAS-1 hr (OAS activity) (OAS; mouse plasma, 250 μg i.v., 1 hr): 80 pmol/dL; OAS-6 hr (OAS activity) (OAS; mouse plasma, 250 μg i.v., 6 hr): 80 pmol/dL; OAS-24 hr (OAS activity) (OAS; mouse plasma, 250 μg i.v., 24 hr): 180 pmol/dL; OAS-48 hr (OAS activity) (OAS; mouse plasma, 250 μg i.v., 48 hr): 200 pmol/dL; TC50 (BCBL-1 cells): > 10 µg/mL; EC50 NR (parainfluenza virus [8]): >10 µg/mL; IC50 NR (parainfluenza virus [8]): >10 µg/mL; EC50 NR [9]: >10 µg/mL; IC50 NR [9]: >10 µg/mL; liver histology: liver and inflammation scores versus PBS-treated group (adenoviral vector, AdGFP): lower liver and inflammation scores; liver histology: sinusoidal cells, mitotic figures, hepatocyte changes versus PBS treatment group (adenoviral vector, AdGFP): less proliferation of sinusoidal cells, fewer mitotic figures and fewer changes in the hepatocytes; average serum AST (adenoviral vector, AdGFP; 50 μg i.p., 7 doses, n=8): 162 U/L; serum ALT (adenoviral vector, AdGFP; 50 μg i.p., 7 doses, n=8): 184 U/L; EC50 NR (west nile virus [10]): 0.00025 µg/mL; IC50 NR (west nile virus [10]): >10 µg/mL; EC50 Visual (vaccinia virus [11]): >10 µg/mL; IC50 Visual (vaccinia virus [11]): >10 µg/mL; EC50 Visual (coxsackie virus [12]): >10 µg/mL; IC50 Visual (coxsackie virus [12]): >10 µg/mL; EC50 Visual (dengue virus [13]): 0.032 µg/mL; IC50 Visual (dengue virus [13]): >10 µg/mL; EC50 Visual (west nile virus [14]): 0.032 ng/mL; IC50 Visual (west nile virus [14]): >10 µg/mL; EC50 NR (influenza virus; [18]): >10 µg/mL; IC50 NR (influenza virus; [18]): >10 µg/mL; EC50 NR (influenza virus; Vero cells): 2 µg/mL; IC50 NR (influenza virus; Vero cells): >10 µg/mL; EC50 NR (vaccinia virus [15]): >10 µg/mL; IC50 NR (vaccinia virus [15]): >10 µg/mL; EC50 NR [16]: 0.05 µg/mL; IC50 NR [16]: >10 µg/mL; Percentage Cytopathic Effect ([17]; relative CM concentration .008X): 56%; Percentage Cytopathic Effect ([17]; relative CM concentration .0156X): 31%; Percentage Cytopathic Effect ([17]; relative CM concentration .0325X): 10%; Percentage Cytopathic Effect ([17]; relative CM concentration .0625X): 10%; Percentage Cytopathic Effect ([17]; relative CM concentration .125X): 5%; Percentage Cytopathic Effect ([17]; relative CM concentration .25X): 0%; Percentage Cytopathic Effect ([17]; relative CM concentration .5X): 0%; EC50 antiviral activity (EMCV): 0.0006 µg/mL; IC50 inhibition of cell death induced by BVDV (BVDV): 0.19 µg/mL; TI (TC50/IC50) (HHV-8): > 1.85; IC50 HHV-8 viral replication (HHV-8; extracellular HHV-8 DNA): 6.5 µg/mL
